In patent publication US20170224836A1 (Novartis, published 2017):
Changes are numbered by the printed parent chain.

B1: NOV0690-SMCC-DM1 (antibody, human IgG1, lambda, V domains shown)
VH: QVQLLESGGGLVQPGGSLRLSCAASGFTFSDHAIDWVRQAPGKGLEWVSVIAGDGSITYYADSVKGRFTISRDNSKNTLYLQMNSLRAEDTAVYYCARDTGVYREYMDVWGQGTLVTVSS
VL: DIELTQPPSVSVSPGQTASITCSGDAIGTKFAHWYQQKPGQAPVLVIYYDHERPSGIPERFSGSNSGNTATLTISGTQAEDEADYYCYSRASSNLVFGGGTKLTVLG
modifications: SMCC-DM1 on primary amines, sites not stated
B2: NOV0692-SMCC-DM1 (antibody, human IgG1, lambda, V domains shown)
VH: QVQLVESGGGLVKPGGSLRLSCAASGFTFSRYWMDWVRQAPGKGLEWVGRIKSKANGGITDYAAPVKGRFTISRDDSKNTLYLQMNSLKTEDTAVYYCARGMTFLGIWGQGTLVTVSS
VL: DIELTQPPSVSVSPGQTASITCSGDSIGSKYAQWYQQKPGQAPVLVIYYNSERPSGIPERFSGSNSGNTATLTISGTQAEDEADYYCQSWDGQSTIRVFGGGTKLTVLG
modifications: SMCC-DM1 on primary amines, sites not stated
B3: NOV0670-SMCC-DM1 (antibody, human IgG1, lambda, V domains shown)
VH: QVQLVQSGAEVKKPGSSVKVSCKASGGTFSSYAISWVRQAPGQGLEWMGGIIPIFGTANYAQKFQGRVTITADESTSTAYMELSSLRSEDTAVYYCARKFPGRGPFAYWGQGTLVTVSS
VL: DIVLTQPPSVSGAPGQRVTISCSGSSSNIGSQYVYWYQQLPGTAPKLLIYYNSERPSGMPDRFSGSKSGTSASLAITGLQAEDEADYYCQTWDASSQSFVFGGGTKLTVLG
modifications: SMCC-DM1 on primary amines, sites not stated
B4: NOV0713-SMCC-DM1 (antibody, human IgG1, lambda, V domains shown)
VH: QVQLQQSGPGLVKPSQTLSLTCAISGDSVSSNSAAWNWIRQSPSRGLEWLGRIYYRSKWYNDYAVSVKSRITINPDTSKNQFSLQLNSVTPEDTAVYYCARGLVGRYGQPYHFDVWGQGTLVTVSS
VL: DIELTQPPSVSVSPGQTASITCSGDNLRSYYVHWYQQKPGQAPVLVIYGNNKRPSGIPERFSGSNSGNTATLTISGTQAEDEADYYCGVYTLSSVVFGGGTKLTVLG
modifications: SMCC-DM1 on primary amines, sites not stated
B5: NOV0685-SMCC-DM1 (antibody, human IgG1, lambda, V domains shown)
VH: QVQLQQSGPGLVKPSQTLSLTCAISGDSVSGNSAAWNWIRQSPSRGLEWLGIIYYRSKWYNDYAVSVKSRITINPDTSKNQFSLQLNSVTPEDTAVYYCARSSYSGGFDYWGQGTLVTVSS
VL: DIVLTQPPSVSGAPGQRVTISCSGSSSNIGSYYVSWYQQLPGTAPKLLIYYNTKRPSGVPDRFSGSKSGTSASLAITGLQAEDEADYYCQSWDKLGKGYVFGGGTKLTVLG
modifications: SMCC-DM1 on primary amines, sites not stated
B6: NOV0689-SMCC-DM1 (antibody, human IgG1, lambda, V domains shown)
VH: QVQLLESGGGLVQPGGSLRLSCAASGFTFSSFAMNWVRQAPGKGLEWVSVISSSGSNTNYADSVKGRFTISRDNSKNTLYLQMNSLRAEDTAVYYCARPSYFQAMDYWGQGTLVTVSS
VL: DIVLTQPPSVSGAPGQRVTISCSGSSSNIGSNFVSWYQQLPGTAPKLLIYDNSNRPSGVPDRFSGSKSGTSASLAITGLQAEDEADYYCSSYDSFDHSWVFGGGTKLTVLG
modifications: SMCC-DM1 on primary amines, sites not stated
B7: NOV0672-SMCC-DM1 (antibody, human IgG1, lambda, V domains shown)
VH: QVQLLESGGGLVQPGGSLRLSCAASGFTFNTYGIHWVRQAPGKGLEWVSYIHYSGSSTYYADSVKGRFTISRDNSKNTLYLQMNSLRAEDTAVYYCARHAYGYMDFWGQGTLVTVSS
VL: DIALTQPASVSGSPGQSITISCTGTSSDVGAYNYVSWYQQHPGKAPKLMIYGVSKRPSGVSNRFSGSKSGNTASLTISGLQAEDEADYYCQSYDHLLHVVFGGGTKLTVLG
modifications: SMCC-DM1 on primary amines, sites not stated
B8: NOV0691-SMCC-DM1 (antibody, human IgG1, lambda, V domains shown)
VH: QVQLVESGGGLVKPGGSLRLSCAASGFTFSSYALNWVRQAPGKGLEWVGRIKSKTYGGSTDYAAPVKGRFTISRDDSKNTLYLQMNSLKTEDTAVYYCARDRGGYVGFDSWGQGTLVTVSS
VL: B7 VL with A31R, Y34F, G52R, K55N, Y93W, D94T, H95T, L96Y, L97S, H98N
modifications: SMCC-DM1 on primary amines, sites not stated
B9: NOV0709-SMCC-DM1 (antibody, human IgG1, lambda, V domains shown)
VH: QVQLLESGGGLVQPGGSLRLSCAASGFTFSTYYMHWVRQAPGKGLEWVSVISSDGSFTFYADSVKGRFTISRDNSKNTLYLQMNSLRAEDTAVYYCARHGYGAFDYWGQGTLVTVSS
VL: B7 VL with A31S, G52Y, K55N, Q91A, D94T, L96Q, L97G, H98S, V99W
modifications: SMCC-DM1 on primary amines, sites not stated
B10: NOV0693-SMCC-DM1 (antibody, human IgG1, kappa, V domains shown)
VH: QVQLLESGGGLVQPGGSLRLSCAASGFTFSSYALHWVRQAPGKGLEWVSYIFYDSSSTYYADSVKGRFTISRDNSKNTLYLQMNSLRAEDTAVYYCARFLYSAYGVANWGQGTLVTVSS
VL: DIQMTQSPSSLSASVGDRVTITCRASQSISFYLAWYQQKPGKAPKLLIYGASTLQSGVPSRFSGSGSGTDFTLTISSLQPEDFATYYCHQYSYWLRTFGQGTKVEIKR
modifications: SMCC-DM1 on primary amines, sites not stated
B11: NOV0695-SMCC-DM1 (antibody, human IgG1, kappa, V domains shown)
VH: QVQLQQSGPGLVKPSQTLSLTCAISGDSVSSNSAAWNWIRQSPSRGLEWLGRIYYRSKWYNDYAVSVKSRITINPDTSKNQFSLQLNSVTPEDTAVYYCARERSYRDYFDYWGQGTLVTVSS
VL: DIQMTQSPSSLSASVGDRVTITCRASQGIFTYLNWYQQKPGKAPKLLISAASTLQSGVPSRFSGSGSGTDFTLTISSLQPEDFATYYCQQYYSTSLTFGQGTKVEIKR
modifications: SMCC-DM1 on primary amines, sites not stated
B12: NOV0705-SMCC-DM1 (antibody, human IgG1, lambda, V domains shown)
VH: QVQLVQSGAEVKKPGESLKISCKGSGYSFTNYWIGWVRQMPGKGLEWMGFIDPGVSYTRYSPSFQGQVTISADKSISTAYLQWSSLKASDTAMYYCARVLAHSTEYNWPAFWGQGTLVTVSS
VL: DIVLTQPPSVSGAPGQRVTISCSGSSSNIGLDYVNWYQQLPGTAPKLLIYRNKQRPSGVPDRFSGSKSGTSASLAITGLQAEDEADYYCQAWAGRTNYVVFGGGTKLTVLG
modifications: SMCC-DM1 on primary amines, sites not stated
B13: NOV0674-SMCC-DM1 (antibody, human IgG1, lambda, V domains shown)
VH: QVQLLESGGGLVQPGGSLRLSCAASGFTFSSYAMTWVRQAPGKGLEWVSGISGGGSNTYYADSVKGRFTISRDNSKNTLYLQMNSLRAEDTAVYYCARGGGQYFDYWGQGTLVTVSS
VL: DIVLTQPPSVSGAPGQRVTISCSGSSSNIGYNYVSWYQQLPGTAPKLLIYRDNQRPSGVPDRFSGSKSGTSASLAITGLQAEDEADYYCAAWTSGSIGWVFGGGTKLTVLG
modifications: SMCC-DM1 on primary amines, sites not stated
B14: NOV0682-SMCC-DM1 (antibody, human IgG1, kappa, V domains shown)
VH: QVQLVESGGGLVKPGGSLRLSCAASGFTFSSYAISWVRQAPGKGLEWVGFIKSNADGYTTNYAAPVKGRFTISRDDSKNTLYLQMNSLKTEDTAVYYCARIRYFRNWDYWGQGTLVTVSS
VL: DIQMTQSPSSLSASVGDRVTITCRASQTINSYLNWYQQKPGKAPKLLIYRASNLQSGVPSRFSGSGSGTDFTLTISSLQPEDFATYYCQQGDSSWTFGQGTKVEIKR
modifications: SMCC-DM1 on primary amines, sites not stated

The binders below were run against T1, human CDH6 on cells (human, UniProt P55285 54-790) (assay: cell-based or functional assay).
T1 sequence: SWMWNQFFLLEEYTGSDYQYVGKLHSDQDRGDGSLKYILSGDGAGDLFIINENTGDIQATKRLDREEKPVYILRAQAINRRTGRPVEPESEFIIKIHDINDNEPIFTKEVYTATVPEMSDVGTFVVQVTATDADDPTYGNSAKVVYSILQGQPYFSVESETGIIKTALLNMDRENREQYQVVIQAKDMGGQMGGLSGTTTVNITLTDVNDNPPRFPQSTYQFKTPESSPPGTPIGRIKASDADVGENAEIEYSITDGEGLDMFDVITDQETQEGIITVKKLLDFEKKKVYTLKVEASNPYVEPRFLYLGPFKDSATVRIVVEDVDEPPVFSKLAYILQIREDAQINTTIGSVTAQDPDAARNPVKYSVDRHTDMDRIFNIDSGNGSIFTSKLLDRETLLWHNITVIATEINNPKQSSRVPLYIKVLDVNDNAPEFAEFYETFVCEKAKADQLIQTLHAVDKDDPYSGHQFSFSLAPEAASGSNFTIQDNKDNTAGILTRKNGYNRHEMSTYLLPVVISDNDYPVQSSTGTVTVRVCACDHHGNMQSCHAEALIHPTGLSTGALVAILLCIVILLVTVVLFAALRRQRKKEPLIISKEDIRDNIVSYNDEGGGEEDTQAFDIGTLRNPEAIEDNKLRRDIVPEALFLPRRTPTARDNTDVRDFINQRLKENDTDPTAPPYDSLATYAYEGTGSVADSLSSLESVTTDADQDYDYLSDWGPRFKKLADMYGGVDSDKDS

Row | Binder | percent inhibition at 1.22 nM ADC, JHOS4 cells [%] | percent inhibition at 1.22 nM ADC, KNS42 cells [%] | percent inhibition at 1.22 nM ADC, NCIH661 cells [%] | percent inhibition at 1.22 nM ADC, OVCAR3 cells [%] | percent inhibition at 1.22 nM ADC, SNU8 cells [%]
1 | B1 | 51 | 56.8 | 14.6 | 84.8 | 18.4
2 | B2 | 62.3 | 57.3 | 14.8 | 88 | 15.7
3 | B3 | -27.9 | -18.6 | 5.14 | -30 | -15.6
4 | B4 | -6.22 | -17.3 | -9.74 | -3.55 | 7.79
5 | B5 | -14.7 | -14.7 | 2.08 | -20.6 | -0.1
6 | B6 | 3.63 | -3.11 | -0.53 | 7.21 | 10.3
7 | B7 | -23 | -12.3 | -6.14 | -16.2 | -10.9
8 | B8 | -14.4 | -9.23 | -10.5 | -1.5 | -2.56
9 | B9 | 4.5 | -4.2 | 5.91 | 46.9 | -7.7
10 | B10 | 58.1 | 15.2 | 25.9 | 85.7 | 35.6
11 | B11 | 66.9 | 66.3 | 18.7 | 89 | 21.6
12 | B12 | 40.4 | -13.3 | -3.15 | 68.6 | 6.4
13 | B13 | -11.9 | -6.82 | 3.9 | -10.3 | -1.42
14 | B14 | 33.9 | 23.8 | 16.4 | 61.8 | 10.8
